Among the data in patent publication US20190322720A1 are % Cell Staining, mean fluorescence intensity and Rosetted cells (>8 beads) values, retold here.

For assay [1], the target named is 16C3 antigen (CEACAM5 and/or CEACAM6) on tumor cells. The experiment in a line: flow cytometry, CFPAC-1 pancreatic cells.
Assay [2] shares this target. Put plainly: rosetting assay, antibody-coupled beads on CFPAC-1 cells.
For assay [3] the target is unchanged. The experiment in a line: flow cytometry, LS174T colorectal cells. For orientation: A flow cytometer gives signals particle by particle.
The target is the same in assay [4]. The experiment in a line: rosetting assay, h16C3-coupled beads on CFPAC-1 cells in the presence of 4B6 at 5 µg/ml.
Assay [5] has the same target. The experiment in a line: flow cytometry, LS174T colorectal cells. The source holds these as a separate data set.
Assay [6] has the same target. Put plainly: flow cytometry, HT-29 colorectal cells.
Assay [7] shares this target. The experiment in a line: flow cytometry, HT-29 colorectal cells. This is another data set of the same source.
For assay [8] the target is unchanged. Put plainly: flow cytometry, CFPAC-1 pancreatic cells. This is another data set of the same source.

B1: h16C3 (antibody, from a related filing, V domains shown)
VH: QVQLVQSGAEVKKPGASVKVSCKASGYTFTDYAMHWVRQAPGQRLEWMGLISTYSGDTKYNQNFQGRVTMTVDKSASTAYMELSSLRSEDTAVYYCARGDYSGSRYWFAYWGQGTLVTVSS
VL: DIQMTQSPSSLSASVGDRVTITCQASENIYGALNWYQRKPGKSPKLLIYGASNLATGMPSRFSGSGSGTDYTFTISSLQPEDIATYYCQQVLSSPYTFGGGTKLEIKR
As to B1, the % Cell Staining in assay [1] was determined as 91.8%; in assay [3], 69.4%; in assay [7] it was 26.3%. Also, the mean fluorescence intensity in assay [1] was 91 mfi; in assay [3], 103 mfi; in assay [5], 103 mfi; in assay [6], 44 mfi; in assay [7], 44 mfi; in assay [8], 91 mfi. Besides, the Rosetted cells (>8 beads) in assay [2] was 53%; in assay [4], 50%.
